US5750344A, “Method for selection of biologically active peptide sequences” (priority 1995, dated 1998)

Legend:
[1] = biological target: T1, urokinase plasminogen activator receptor (uPAR) (Homo sapiens, UniProt Q03405); test: Binding of individual phage clones to Sf9 cells expressing fluPAR (% recovery); conditions: for % Recovery uPAR: phage clone displaying the peptide, Sf9 cells expressing full length uPAR (fluPAR); for Specificity (uPAR/SPR): ratio of % recovery on uPAR Sf9 cells to % recovery on SPR Sf9 cells
T1 construct: 10^6 Sf9 cells expressing full length uPAR ("fluPAR", day 2 post infection); expressed in transfected cells; host or cells: Sf9 insect cells (baculovirus-infected)
Method: (§1) 1.) 15mer phage (2.5×10^10) prepared as described above were selected by coincubation with 10^6 Sf9 cells expressing full length uPAR ("fluPAR", day 2 post infection) at room temperature for 60 minutes in Grace's medium with 2% nonfat milk. Binding phage were eluted with 6M urea (pH 2.2), the pH neutralized by adding 2M Tris-HCl, and assayed. The yield of binding phage was 0.0013% (3.3×10^5 pfu). The phage were amplified on solid agar plates as plaques, eluted with Tris-buffered saline, and precipitated with polyethylene glycol.
(§2) 3.) The phage selected in round 2 were reselected on Sf9 cells expressing fluPAR (day 2 post-infection) as described for round 1 (2.8×10^10 phage on 10^6 Sf9 cells). The yield of binding phage from this round was 5.40% (1.5×10^9 pfu), indicating a substantial enrichment in binding phage. Phage from the urea eluate were cloned, and the DNA isolated and sequenced. Binding by individual phage clones was assayed against Sf9 cells expressing fluPAR, and Sf9 cells expressing substance P receptor (as a control).

substance P receptor = biological target: T2, substance P receptor (Homo sapiens, UniProt P25103); test: Binding of individual phage clones to Sf9 cells expressing substance P receptor (control); conditions: phage clone displaying the peptide
T2 construct: expressed in transfected cells; host or cells: Sf9 insect cells
Method: as §1, §2

T1 sequence (Q03405 23-335, species assumed): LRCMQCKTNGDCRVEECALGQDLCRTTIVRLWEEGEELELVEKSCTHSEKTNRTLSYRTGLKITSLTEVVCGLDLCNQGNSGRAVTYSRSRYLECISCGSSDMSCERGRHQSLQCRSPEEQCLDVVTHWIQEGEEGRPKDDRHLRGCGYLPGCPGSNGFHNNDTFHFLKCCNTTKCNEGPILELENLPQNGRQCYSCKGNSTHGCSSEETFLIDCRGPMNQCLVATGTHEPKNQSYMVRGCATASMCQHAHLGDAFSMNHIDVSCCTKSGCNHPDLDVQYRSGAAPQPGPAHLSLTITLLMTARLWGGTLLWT
T2 sequence (P25103 whole entry, species assumed): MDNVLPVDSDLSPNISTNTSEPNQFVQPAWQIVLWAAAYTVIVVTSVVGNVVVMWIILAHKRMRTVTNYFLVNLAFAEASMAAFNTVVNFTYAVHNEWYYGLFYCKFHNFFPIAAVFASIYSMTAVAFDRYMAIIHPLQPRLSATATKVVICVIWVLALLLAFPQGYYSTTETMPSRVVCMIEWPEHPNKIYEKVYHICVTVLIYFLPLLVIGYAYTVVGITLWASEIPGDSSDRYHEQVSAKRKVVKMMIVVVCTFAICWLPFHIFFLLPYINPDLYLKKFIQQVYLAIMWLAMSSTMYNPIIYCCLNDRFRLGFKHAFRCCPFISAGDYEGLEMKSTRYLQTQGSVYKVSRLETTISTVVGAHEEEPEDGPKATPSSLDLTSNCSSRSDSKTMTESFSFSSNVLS

Sequence	% Recovery uPAR [1] [%]	Specificity (uPAR/SPR) [1]	% Recovery SPR (substance P receptor) [%]
AEPLDLWSLYSLPPLAM (displayed on phage)	6.0	63	0.095
AEPALLNWSFFFNPGLH (displayed on phage)	4.7	47	0.100
AESLPTLTSILWGKESV (displayed on phage)	0.5	23	0.022
AECLNGGTAVSNKYFSNIHWCN (displayed on phage) [reference compound]	6.8	850	0.008
AESSLWRIFSPSALMMS (displayed on phage)	3.5	50	0.070
AEMHRSLWEWYVPNQSA (displayed on phage)	4.2	105	0.040
AEPMPHSLNFSQYLWYT (displayed on phage)	2.2	28	0.080
AEWHPGLSFGSYLWSKT (displayed on phage)	5.7	168	0.034
AESSLWTRYAWPSMPSY (displayed on phage)	12.1	47	0.260
AESQTGTLNTLFWNTLR (displayed on phage)	2.8	350	0.008
